Test results from US20190263934A1.

Key:
[1] = biological target: Human CD16a (FcγRIIIa) V158 with C-terminal HPC4 tag (human) (UniProt P08637); experiment: Biacore SPR, captured FcγRIIIa-V158, relative to WT of the same backbone
[2] = biological target: biotinylated hFcRn (human) (UniProt P55899); experiment: Biacore SPR, pH 7.4, steady state
Target sequence in this assay (P55899 24-297, form in doubt, chain 1 of 2): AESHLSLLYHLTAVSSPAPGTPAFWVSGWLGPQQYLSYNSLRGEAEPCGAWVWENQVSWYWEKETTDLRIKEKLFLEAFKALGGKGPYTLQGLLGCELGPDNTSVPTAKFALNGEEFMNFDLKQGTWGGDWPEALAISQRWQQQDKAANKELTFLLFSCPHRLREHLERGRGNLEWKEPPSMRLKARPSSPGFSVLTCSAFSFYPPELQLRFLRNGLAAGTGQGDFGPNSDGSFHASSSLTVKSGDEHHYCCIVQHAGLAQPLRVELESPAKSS
Target sequence in this assay (P61769 21-119, form in doubt, chain 2 of 2, further chain): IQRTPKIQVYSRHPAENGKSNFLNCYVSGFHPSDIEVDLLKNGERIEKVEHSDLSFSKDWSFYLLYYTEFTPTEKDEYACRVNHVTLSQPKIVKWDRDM

mouse FcRn (mouse) [3] = biological target: mouse FcRn (mouse) (UniProt Q61559); experiment: Biacore SPR, pH 7.4, steady state
[4] = biological target: biotinylated cynomolgus FcRn (cynomolgus) (UniProt Q8SPV9); experiment: Biacore SPR, pH 7.4, steady state
[5] = biological target: biotinylated hFcRn (human) (UniProt P55899); experiment: Biacore SPR, pH 6.0
Target sequence in this assay (P55899 24-297, form in doubt, chain 1 of 2): as the sequence (P55899 24-297, form in doubt, chain 1 of 2) above
Target sequence in this assay (P61769 21-119, form in doubt, chain 2 of 2, further chain): as the sequence (P61769 21-119, form in doubt, chain 2 of 2, further chain) above

mouse FcRn (mouse) [6] = biological target: mouse FcRn (mouse) (UniProt Q61559); experiment: Biacore SPR, pH 6.0
[7] = biological target: biotinylated cynomolgus FcRn (cynomolgus) (UniProt Q8SPV9); experiment: Biacore SPR, pH 6.0
[8] = biological target: biotinylated hFcRn (human) (UniProt P55899); experiment: SPR Biacore, pH 7.4
Target sequence in this assay (P55899 24-297 limits assumed, form in doubt, chain 1 of 2): as the sequence (P55899 24-297, form in doubt, chain 1 of 2) above
Target sequence in this assay (P61769 21-119 limits assumed, form in doubt, chain 2 of 2, further chain): as the sequence (P61769 21-119, form in doubt, chain 2 of 2, further chain) above

rFcRn (rat) [9] = biological target: rFcRn (rat) (UniProt P13599); experiment: SPR Biacore, pH 7.4
Target sequence in this assay (P13599 23-298 limits assumed, form in doubt, chain 1 of 2): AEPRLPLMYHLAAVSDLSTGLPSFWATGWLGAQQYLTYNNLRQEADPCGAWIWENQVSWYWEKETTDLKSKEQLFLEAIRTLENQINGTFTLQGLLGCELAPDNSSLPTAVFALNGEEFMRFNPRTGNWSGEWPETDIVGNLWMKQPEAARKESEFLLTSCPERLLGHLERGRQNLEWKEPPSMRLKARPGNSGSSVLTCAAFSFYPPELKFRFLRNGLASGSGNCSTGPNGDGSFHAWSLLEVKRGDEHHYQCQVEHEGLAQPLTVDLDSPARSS
Target sequence in this assay (P07151 21-119 limits assumed, form in doubt, chain 2 of 2, further chain): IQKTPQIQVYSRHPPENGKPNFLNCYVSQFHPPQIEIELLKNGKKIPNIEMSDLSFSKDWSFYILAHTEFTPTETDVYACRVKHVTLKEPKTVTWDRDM

[10] = biological target: biotinylated hFcRn (human) (UniProt P55899); experiment: SPR Biacore, pH 6.0
Target sequence in this assay (P55899 24-297 limits assumed, form in doubt, chain 1 of 2): as the sequence (P55899 24-297, form in doubt, chain 1 of 2) above
Target sequence in this assay (P61769 21-119 limits assumed, form in doubt, chain 2 of 2, further chain): as the sequence (P61769 21-119, form in doubt, chain 2 of 2, further chain) above

rFcRn (rat) [11] = biological target: rFcRn (rat) (UniProt P13599); experiment: SPR Biacore, pH 6.0
Target sequence in this assay (P13599 23-298 limits assumed, form in doubt, chain 1 of 2): as the sequence (P13599 23-298 limits assumed, form in doubt, chain 1 of 2) above
Target sequence in this assay (P07151 21-119 limits assumed, form in doubt, chain 2 of 2, further chain): as the sequence (P07151 21-119 limits assumed, form in doubt, chain 2 of 2, further chain) above

[12] = biological target: biotinylated hFcRn (human) (UniProt P55899); experiment: SPR Biacore, pH 6.0; remark: listed apart in the source
Target sequence in this assay (P55899 24-297 limits assumed, form in doubt, chain 1 of 2): as the sequence (P55899 24-297, form in doubt, chain 1 of 2) above
Target sequence in this assay (P61769 21-119 limits assumed, form in doubt, chain 2 of 2, further chain): as the sequence (P61769 21-119, form in doubt, chain 2 of 2, further chain) above

rFcRn (rat) [13] = biological target: rFcRn (rat) (UniProt P13599); experiment: SPR Biacore, pH 6.0; remark: listed apart in the source
Target sequence in this assay (P13599 23-298 limits assumed, form in doubt, chain 1 of 2): as the sequence (P13599 23-298 limits assumed, form in doubt, chain 1 of 2) above
Target sequence in this assay (P07151 21-119 limits assumed, form in doubt, chain 2 of 2, further chain): as the sequence (P07151 21-119 limits assumed, form in doubt, chain 2 of 2, further chain) above

[14] = biological target: Human CD16a (FcγRIIIa) V158 with C-terminal HPC4 tag (human) (UniProt P08637); experiment: SPR Biacore, captured FcγRIIIa-V158
[15] = biological target: biotinylated hFcRn (human) (UniProt P55899); experiment: SPR Biacore, pH 7.4; remark: listed apart in the source
Target sequence in this assay (P55899 24-297 limits assumed, form in doubt, chain 1 of 2): as the sequence (P55899 24-297, form in doubt, chain 1 of 2) above
Target sequence in this assay (P61769 21-119 limits assumed, form in doubt, chain 2 of 2, further chain): as the sequence (P61769 21-119, form in doubt, chain 2 of 2, further chain) above

[16] = biological target: biotinylated hFcRn (human) (UniProt P55899); experiment: SPR Biacore, pH 7.4, 1000 nM antibody
Target sequence in this assay (P55899 24-297 limits assumed, form in doubt, chain 1 of 2): as the sequence (P55899 24-297, form in doubt, chain 1 of 2) above
Target sequence in this assay (P61769 21-119 limits assumed, form in doubt, chain 2 of 2, further chain): as the sequence (P61769 21-119, form in doubt, chain 2 of 2, further chain) above

rFcRn (rat) [17] = biological target: rFcRn (rat) (UniProt P13599); experiment: SPR Biacore, pH 7.4, 1000 nM antibody
Target sequence in this assay (P13599 23-298 limits assumed, form in doubt, chain 1 of 2): as the sequence (P13599 23-298 limits assumed, form in doubt, chain 1 of 2) above
Target sequence in this assay (P07151 21-119 limits assumed, form in doubt, chain 2 of 2, further chain): as the sequence (P07151 21-119 limits assumed, form in doubt, chain 2 of 2, further chain) above

rFcRn (rat) [18] = biological target: rFcRn (rat) (UniProt P13599); experiment: BLI Octet, pH 6.0, purified antibody
Target sequence in this assay (P13599 23-298 limits assumed, form in doubt, chain 1 of 2): as the sequence (P13599 23-298 limits assumed, form in doubt, chain 1 of 2) above
Target sequence in this assay (P07151 21-119 limits assumed, form in doubt, chain 2 of 2, further chain): as the sequence (P07151 21-119 limits assumed, form in doubt, chain 2 of 2, further chain) above

[19] = biological target: Human CD16a (FcγRIIIa residues 17-208, C-terminal HPC4 tag, valine at position 158) (human) (UniProt P08637); experiment: Biacore SPR, HPC4-captured FcγRIIIa-V158, pH 7.4
Chain of Human CD16a (FcγRIIIa residues 17-208, C-terminal HPC4 tag, valine at position 158) (human) (P08637 17-208 F176V): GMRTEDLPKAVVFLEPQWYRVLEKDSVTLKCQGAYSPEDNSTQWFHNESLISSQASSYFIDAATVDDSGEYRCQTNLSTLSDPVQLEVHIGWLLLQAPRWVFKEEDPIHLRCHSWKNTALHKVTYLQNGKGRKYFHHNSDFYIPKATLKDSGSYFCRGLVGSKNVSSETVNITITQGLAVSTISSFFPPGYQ

[20] = biological target: biotinylated human FcRn (hFcRn; p51 subunit residues 24-297 with C-terminal Avi-tag, β2-m residues 21-119) (human) (UniProt P55899); experiment: Biacore SPR, pH 6.0, apparent affinity
Chain of biotinylated human FcRn (hFcRn; p51 subunit residues 24-297 with C-terminal Avi-tag, β2-m residues 21-119) (human) (P55899 24-297, form in doubt, chain 1 of 2): as the sequence (P55899 24-297, form in doubt, chain 1 of 2) above
Chain of biotinylated human FcRn (hFcRn; p51 subunit residues 24-297 with C-terminal Avi-tag, β2-m residues 21-119) (human) (P61769 21-119, form in doubt, chain 2 of 2, further chain): as the sequence (P61769 21-119, form in doubt, chain 2 of 2, further chain) above

[21] = biological target: biotinylated human FcRn (hFcRn; p51 subunit residues 24-297 with C-terminal Avi-tag, β2-m residues 21-119) (human) (UniProt P55899); experiment: Biacore SPR, Biotin CAPture, pH 7.4, 1000 nM antibody, steady state
[22] = biological target: biotinylated human FcRn (hFcRn; p51 subunit residues 24-297 with C-terminal Avi-tag, β2-m residues 21-119) (human) (UniProt P55899); experiment: Biacore SPR, human FcRn, pH 7.4, steady state
[23] = biological target: biotinylated human FcRn (hFcRn; p51 subunit residues 24-297 with C-terminal Avi-tag, β2-m residues 21-119) (human) (UniProt P55899); experiment: Biacore SPR; second ratio column (inverse of c7)
[24] = biological target: biotinylated human FcRn (hFcRn; p51 subunit residues 24-297 with C-terminal Avi-tag, β2-m residues 21-119) (human) (UniProt P55899); experiment: Biacore SPR, pH 7.4, steady state, 1000 nM antibody
[25] = biological target: biotinylated human FcRn (hFcRn; p51 subunit residues 24-297 with C-terminal Avi-tag, β2-m residues 21-119) (human) (UniProt P55899); experiment: Biacore SPR, Biotin CAPture of biotinylated human FcRn, pH 6.0
[26] = biological target: biotinylated human FcRn (hFcRn; p51 subunit residues 24-297 with C-terminal Avi-tag, β2-m residues 21-119) (human) (UniProt P55899); experiment: Biacore SPR; pH 6.0 affinity (M^-1) over pH 7.4 steady state RU
[27] = biological target: biotinylated human FcRn (hFcRn; p51 subunit residues 24-297 with C-terminal Avi-tag, β2-m residues 21-119) (human) (UniProt P55899); experiment: Biacore SPR, human FcRn, pH 6.0 (column 'Affinity, pH 6.0 (nM)')
rFcRn (rat) [28] = biological target: rFcRn (rat) (UniProt P13599); experiment: BLI Octet screen, pH 6.0
Target sequence in this assay (P13599 23-298 limits assumed, form in doubt, chain 1 of 2): as the sequence (P13599 23-298 limits assumed, form in doubt, chain 1 of 2) above
Target sequence in this assay (P07151 21-119 limits assumed, form in doubt, chain 2 of 2, further chain): as the sequence (P07151 21-119 limits assumed, form in doubt, chain 2 of 2, further chain) above

[29] = biological target: Human CD16a (FcγRIIIa) V158 with C-terminal HPC4 tag (human) (UniProt P08637); experiment: SPR Biacore FcγRIIIa
[30] = biological target: biotinylated hFcRn (human) (UniProt P55899); experiment: Biacore SPR, pH 6.0, bivalent fit
Target sequence in this assay (P55899 24-297, form in doubt, chain 1 of 2): as the sequence (P55899 24-297, form in doubt, chain 1 of 2) above
Target sequence in this assay (P61769 21-119, form in doubt, chain 2 of 2, further chain): as the sequence (P61769 21-119, form in doubt, chain 2 of 2, further chain) above

rFcRn (rat) [31] = biological target: rFcRn (rat) (UniProt P13599); experiment: Biacore SPR, pH 6.0, bivalent fit
Target sequence in this assay (P13599 23-298, form in doubt, chain 1 of 2): as the sequence (P13599 23-298 limits assumed, form in doubt, chain 1 of 2) above
Target sequence in this assay (P07151 21-119, form in doubt, chain 2 of 2, further chain): as the sequence (P07151 21-119 limits assumed, form in doubt, chain 2 of 2, further chain) above

Chain of Human CD16a (FcγRIIIa) V158 with C-terminal HPC4 tag (human) (P08637 17-208 F176V): as the sequence (P08637 17-208 F176V) above
Chain of mouse FcRn (mouse) (Q61559 22-297, chain 1 of 2): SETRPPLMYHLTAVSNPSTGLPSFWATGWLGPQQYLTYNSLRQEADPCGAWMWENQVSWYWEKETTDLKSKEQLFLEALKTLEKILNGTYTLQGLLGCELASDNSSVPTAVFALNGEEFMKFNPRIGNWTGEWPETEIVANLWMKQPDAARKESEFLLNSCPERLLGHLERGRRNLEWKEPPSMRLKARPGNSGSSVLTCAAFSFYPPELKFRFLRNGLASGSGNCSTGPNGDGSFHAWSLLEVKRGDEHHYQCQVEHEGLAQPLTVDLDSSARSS
Chain of mouse FcRn (mouse) (P01887 21-119, chain 2 of 2, further chain): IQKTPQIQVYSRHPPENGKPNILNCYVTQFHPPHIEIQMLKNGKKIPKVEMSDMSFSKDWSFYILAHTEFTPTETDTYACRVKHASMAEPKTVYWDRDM

## mAb2 YD (M252Y/T256D) (antibody)
[1]
  FcγRIIIa V158 Affinity Fold Change (fold relative to WT): 0.58
[2]
  Steady State RU (pH 7.4): 27 RU
Mouse FcRn (mouse) [3]
  Steady State RU (pH 7.4): 394 RU
[4]
  Steady State RU (pH 7.4): 22 RU
[5]
  Kd: 99 nM
Mouse FcRn (mouse) [6]
  Kd: 10 nM
[7]
  Kd: 120 nM

## mAb2 DW (T256D/T307W) (antibody)
[1]
  FcγRIIIa V158 Affinity Fold Change (fold relative to WT): 1.15
[2]
  Steady State RU (pH 7.4): 18 RU
Mouse FcRn (mouse) [3]
  Steady State RU (pH 7.4): 257 RU
[4]
  Steady State RU (pH 7.4): 15 RU
[5]
  Kd: 69 nM
Mouse FcRn (mouse) [6]
  Kd: 13 nM
[7]
  Kd: 99 nM

## mAb1 T256D/T307W (antibody)
[8]
  Steady State RU: 12.2 RU
rFcRn (rat) [9]
  Steady State RU: 42.1 RU
[10]
  Kd: 169 nM
  koff: 0.0892 s⁻¹
  kon: 529000 M⁻¹ s⁻¹
rFcRn (rat) [11]
  Kd: 8.24 nM
  koff: 0.00129 s⁻¹
  kon: 157000 M⁻¹ s⁻¹
[12]
  koff: 0.89 s⁻¹
  kon: 53000 M⁻¹ s⁻¹
rFcRn (rat) [13]
  Kd: 8.2 nM
[14]
  FcγRIIIa V158 Affinity Fold Change (relative to WT): 0.89 fold

## mAb1 T307A/E380A/N434A (antibody)
[10]
  Kd: 1780 nM
  koff: 0.144 s⁻¹
  kon: 83700 M⁻¹ s⁻¹
rFcRn (rat) [11]
  Kd: 77 nM
  koff: 0.0117 s⁻¹
  kon: 157000 M⁻¹ s⁻¹
[15]
  Steady State RU: 13.1 RU
[16]
  Steady State RU: 13.9 RU
rFcRn (rat) [17]
  Steady State RU: 23.6 RU
rFcRn (rat) [18]
  koff: 0.00377 s⁻¹

## mAb2 LS (M428L/N434S) (antibody)
[1]
  FcγRIIIa V158 Affinity Fold Change (fold relative to WT): 1.23
[2]
  Steady State RU (pH 7.4): 44 RU
Mouse FcRn (mouse) [3]
  Steady State RU (pH 7.4): 285 RU
[4]
  Steady State RU (pH 7.4): 38 RU
[5]
  Kd: 113 nM
Mouse FcRn (mouse) [6]
  Kd: 20 nM
[7]
  Kd: 210 nM

## mAb1 YDWY variant (M252Y/T256D/T307W/N434Y) (antibody)
[19]
  FcγRIIIa Binding (RU): 104 RU
[20]
  Ka: 2.66e+08 M⁻¹
[21]
  pH 7.4 RU: 91.2 RU
[22]
  Steady State RU (pH 7.4): 91.2 RU
[23]
  Ratio (pH 6.0/pH 7.4): 3.33e-07
[24]
  Steady State Binding, pH 7.4 (RU): 88.5 RU
[25]
  Kd: 5.2 nM
[26]
  Ratio (pH 6.0/pH 7.4): 3.01e+06
[27]
  Kd: 5.2 nM

## mAb1 M252Y/T256D (antibody)
[8]
  Steady State RU: 9.7 RU
rFcRn (rat) [9]
  Steady State RU: 56 RU
rFcRn (rat) [11]
  Kd: 5.86 nM
rFcRn (rat) [13]
  Kd: 5.9 nM

## mAb1 YDQF variant (M252Y/T256D/T307Q/N434F) (antibody)
[19]
  FcγRIIIa Binding (RU): 93.2 RU
[20]
  Ka: 1.11e+08 M⁻¹
[21]
  pH 7.4 RU: 91.7 RU
[22]
  Steady State RU (pH 7.4): 91.7 RU
[24]
  Steady State Binding, pH 7.4 (RU): 68.6 RU

## mAb2 DQ (T256D/T307Q) (antibody)
[1]
  FcγRIIIa V158 Affinity Fold Change (fold relative to WT): 1.05
[2]
  Steady State RU (pH 7.4): 14 RU
Mouse FcRn (mouse) [3]
  Steady State RU (pH 7.4): 248 RU
[4]
  Steady State RU (pH 7.4): 11 RU
[5]
  Kd: 97 nM
Mouse FcRn (mouse) [6]
  Kd: 24 nM
[7]
  Kd: 110 nM

## mAb1 N434Y (antibody)
[8]
  Steady State RU: 25.5 RU
rFcRn (rat) [9]
  Steady State RU: 66 RU
rFcRn (rat) [28]
  fold slower off-rate vs WT: > 2 fold
[10]
  Kd: 137 nM
  koff: 0.052 s⁻¹
  kon: 359000 M⁻¹ s⁻¹
rFcRn (rat) [11]
  Kd: 23 nM
  koff: 0.00346 s⁻¹
  kon: 145000 M⁻¹ s⁻¹
[12]
  koff: 0.05 s⁻¹
  kon: 360000 M⁻¹ s⁻¹
[29]
  % enhanced binding vs WT: 16 to 40%
[30]
  Kd: 137 nM
  koff: 0.05 s⁻¹
  kon: 360000 M⁻¹ s⁻¹
rFcRn (rat) [31]
  Kd: 23 nM
  koff: 0.0035 s⁻¹
  kon: 145000 M⁻¹ s⁻¹
[14]
  FcγRIIIa V158 Affinity Fold Change (relative to WT): 1.41 fold
[16]
  Steady State RU: 22.6 RU
rFcRn (rat) [17]
  Steady State RU: 47 RU
rFcRn (rat) [18]
  koff: 0.00133 s⁻¹

## mAb1 M252Y/S254T/T256E (antibody)
[8]
  Steady State RU: 13.2 RU
rFcRn (rat) [9]
  Steady State RU: 53.9 RU
[10]
  koff: 0.045 s⁻¹
rFcRn (rat) [11]
  Kd: 18 nM
  koff: 0.00121 s⁻¹
[15]
  Steady State RU: 13.1 RU
[12]
  Kd: 342 nM
[29]
  % reduction in binding response vs wild-type: 50%
[16]
  Steady State RU: 13.2 RU
rFcRn (rat) [17]
  Steady State RU: 53.9 RU
rFcRn (rat) [18]
  koff: 0.00066 s⁻¹

## mAb1 M428L/N434S (antibody)
[8]
  Steady State RU: 18.3 RU
rFcRn (rat) [9]
  Steady State RU: 24.8 RU
[10]
  koff: 0.052 s⁻¹
  kon: 193000 M⁻¹ s⁻¹
rFcRn (rat) [11]
  Kd: 74 nM
  koff: 0.00658 s⁻¹
  kon: 90800 M⁻¹ s⁻¹
[15]
  Steady State RU: 18.5 RU
[12]
  Kd: 272 nM
  koff: 0.5 s⁻¹
  kon: 19000 M⁻¹ s⁻¹
[14]
  FcγRIIIa V158 Affinity Fold Change (relative to WT): 1.04 fold
[16]
  Steady State RU: 18.3 RU
rFcRn (rat) [17]
  Steady State RU: 24.8 RU
rFcRn (rat) [18]
  koff: 0.00338 s⁻¹

## mAb1 T256D/T307Q (antibody)
[8]
  Steady State RU: 10.7 RU
rFcRn (rat) [9]
  Steady State RU: 39.1 RU
[10]
  Kd: 232 nM
  koff: 0.0872 s⁻¹
  kon: 376000 M⁻¹ s⁻¹
rFcRn (rat) [11]
  Kd: 9.54 nM
  koff: 0.00127 s⁻¹
  kon: 133000 M⁻¹ s⁻¹
[12]
  koff: 0.87 s⁻¹
  kon: 38000 M⁻¹ s⁻¹
rFcRn (rat) [13]
  Kd: 9.5 nM
[14]
  FcγRIIIa V158 Affinity Fold Change (relative to WT): 0.73 fold

## mAb1 YDQY variant (M252Y/T256D/T307Q/N434Y) (antibody)
[19]
  FcγRIIIa Binding (RU): 119 RU
[20]
  Ka: 2.35e+08 M⁻¹
[21]
  pH 7.4 RU: 103 RU
[22]
  Steady State RU (pH 7.4): 103 RU
[23]
  Ratio (pH 7.4/pH 6.0): 3.41e-07
[24]
  Steady State Binding, pH 7.4 (RU): 80.2 RU
[25]
  Kd: 2.7 nM
[26]
  Ratio (pH 6.0/pH 7.4): 2.93e+06
[27]
  Kd: 2.7 nM
